Here are results for three molecules from US20220010284A1 (TRUSTEES OF PRINCETON UNIVERSITY, published 2022).

Data set [1] concerns Gp59 (cI repressor, phage VP882) (Vibrio phage VP882). The data set can be described thus: cell_activity. Particulars: Pq-lux in E. coli, arabinose induced; direct binding inferred.
Data set [2] concerns the target T1, lambda HALO-cI (HIS-HALO-cIlambda) (phage lambda, UniProt P03034 2-237).
T1 construct: also called lambda cI; lambda repressor; not shown: N-terminal HIS-HALO tag and linker from vector pH6HTN
T1 sequence: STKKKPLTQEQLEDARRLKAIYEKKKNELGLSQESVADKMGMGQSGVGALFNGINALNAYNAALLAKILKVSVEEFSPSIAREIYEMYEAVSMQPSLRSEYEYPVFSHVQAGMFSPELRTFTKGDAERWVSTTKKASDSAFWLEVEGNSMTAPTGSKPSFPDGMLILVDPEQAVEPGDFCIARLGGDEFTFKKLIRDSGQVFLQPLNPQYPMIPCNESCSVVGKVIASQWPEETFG
The data set can be described thus: confocal microscopy of HALO-cI localization in E. coli co-expressing Qtip.

Data set [3] concerns the target T1, lambda HALO-cI (HIS-HALO-cIlambda). The data set can be described thus: confocal microscopy of HALO-cI localization in E. coli with induced orf584.

On to Pq (q/gp62 promoter), for which, in data set [1], the activity (fold repression) was 140.

B1: Qtip (Gp55 of phage VP882, quorum triggered inactivator of cI protein) (other)
chain: MCDFCSEHIDSLDALQSSLEKGTAIIELLDTALSAGIEVSPRVVSCALSAAHQHLQVSEKINRSLQIGCGSKEVLRLVD
notes: also called phage VP882 Qtip; pTetA-qtip
For B1, the binding result in data set [2] is reported as “no binding”.

B2: ORF584 (Qtip-like protein of phage MJ1) (other)
chain: MDLRVSNAKDLLDKFEEKAVQMESISQLLANAPEDLTLATVQGSLSALASIARDAGEAADRLRTISSAEG
notes: also called phage MJ1 orf584; pTetA-orf584
Regarding B2, the binding result in data set [3] is on record as “no binding”.
